Reference: patent US20240182536A1 (MURAL ONCOLOGY, published 2024)

How the values were obtained:
Assay in all cases: cell-based or functional assay
[1] = biological target: T1, IL-18 receptors on HEK-Blue IL-18 reporter cells (UniProt Q13478 19-541; O95256 20-599, limits assumed)
T1 sequence (looked up) 1: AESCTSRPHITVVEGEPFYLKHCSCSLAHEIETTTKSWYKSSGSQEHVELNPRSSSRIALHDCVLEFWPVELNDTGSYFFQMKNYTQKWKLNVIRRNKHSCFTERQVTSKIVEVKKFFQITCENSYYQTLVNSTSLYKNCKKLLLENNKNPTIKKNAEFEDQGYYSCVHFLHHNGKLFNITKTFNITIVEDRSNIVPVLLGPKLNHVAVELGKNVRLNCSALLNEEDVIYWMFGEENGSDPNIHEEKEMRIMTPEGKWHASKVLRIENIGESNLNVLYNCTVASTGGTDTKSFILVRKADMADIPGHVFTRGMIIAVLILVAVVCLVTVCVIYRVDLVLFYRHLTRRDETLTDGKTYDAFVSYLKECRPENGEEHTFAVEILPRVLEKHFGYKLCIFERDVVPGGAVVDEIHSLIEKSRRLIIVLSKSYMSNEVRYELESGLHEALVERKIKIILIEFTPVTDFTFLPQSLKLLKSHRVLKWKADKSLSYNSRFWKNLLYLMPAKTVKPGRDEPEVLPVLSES
T1 sequence (looked up) 2: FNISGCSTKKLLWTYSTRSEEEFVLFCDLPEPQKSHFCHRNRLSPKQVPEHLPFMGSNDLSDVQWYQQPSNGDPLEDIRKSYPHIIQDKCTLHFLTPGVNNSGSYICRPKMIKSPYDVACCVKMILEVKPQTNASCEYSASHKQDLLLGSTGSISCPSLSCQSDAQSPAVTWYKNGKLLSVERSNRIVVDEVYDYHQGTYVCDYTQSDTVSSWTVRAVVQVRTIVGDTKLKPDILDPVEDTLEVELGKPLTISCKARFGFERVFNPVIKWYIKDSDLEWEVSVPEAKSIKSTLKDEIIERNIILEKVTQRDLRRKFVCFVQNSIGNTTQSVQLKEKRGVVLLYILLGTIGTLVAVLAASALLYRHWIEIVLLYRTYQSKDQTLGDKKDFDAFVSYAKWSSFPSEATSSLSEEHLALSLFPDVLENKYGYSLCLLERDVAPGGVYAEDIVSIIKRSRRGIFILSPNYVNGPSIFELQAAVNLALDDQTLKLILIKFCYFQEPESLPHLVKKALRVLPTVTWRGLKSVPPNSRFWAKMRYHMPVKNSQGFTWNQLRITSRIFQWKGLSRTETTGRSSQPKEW

[2] = biological target: T2, IL-18 binding protein (IL-18BP) (UniProt O95998 31-194)
T2 sequence (looked up): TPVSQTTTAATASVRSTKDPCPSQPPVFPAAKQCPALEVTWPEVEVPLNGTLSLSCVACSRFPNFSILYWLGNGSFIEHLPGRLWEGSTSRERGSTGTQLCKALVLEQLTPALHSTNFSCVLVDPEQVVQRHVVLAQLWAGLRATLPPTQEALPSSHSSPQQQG

[3] = biological target: T3, IL-18 receptors on HEK-Blue IL-18 reporter cells (UniProt Q13478 19-541; O95256 20-599, limits assumed); remark: listed apart in the source
T3 sequence (looked up) 1: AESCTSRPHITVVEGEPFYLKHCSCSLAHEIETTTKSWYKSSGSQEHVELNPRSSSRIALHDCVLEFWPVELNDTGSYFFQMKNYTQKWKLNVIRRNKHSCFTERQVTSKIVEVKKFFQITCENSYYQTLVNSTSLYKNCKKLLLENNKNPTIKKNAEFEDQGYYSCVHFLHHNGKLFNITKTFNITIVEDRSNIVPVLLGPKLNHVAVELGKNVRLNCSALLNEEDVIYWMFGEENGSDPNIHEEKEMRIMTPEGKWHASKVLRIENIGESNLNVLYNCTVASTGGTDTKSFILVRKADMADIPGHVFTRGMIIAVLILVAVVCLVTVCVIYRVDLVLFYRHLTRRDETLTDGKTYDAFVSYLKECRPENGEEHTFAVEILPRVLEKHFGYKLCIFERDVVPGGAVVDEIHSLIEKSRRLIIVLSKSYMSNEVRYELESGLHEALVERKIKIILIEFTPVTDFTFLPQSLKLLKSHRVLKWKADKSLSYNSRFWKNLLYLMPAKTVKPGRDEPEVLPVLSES
T3 sequence (looked up) 2: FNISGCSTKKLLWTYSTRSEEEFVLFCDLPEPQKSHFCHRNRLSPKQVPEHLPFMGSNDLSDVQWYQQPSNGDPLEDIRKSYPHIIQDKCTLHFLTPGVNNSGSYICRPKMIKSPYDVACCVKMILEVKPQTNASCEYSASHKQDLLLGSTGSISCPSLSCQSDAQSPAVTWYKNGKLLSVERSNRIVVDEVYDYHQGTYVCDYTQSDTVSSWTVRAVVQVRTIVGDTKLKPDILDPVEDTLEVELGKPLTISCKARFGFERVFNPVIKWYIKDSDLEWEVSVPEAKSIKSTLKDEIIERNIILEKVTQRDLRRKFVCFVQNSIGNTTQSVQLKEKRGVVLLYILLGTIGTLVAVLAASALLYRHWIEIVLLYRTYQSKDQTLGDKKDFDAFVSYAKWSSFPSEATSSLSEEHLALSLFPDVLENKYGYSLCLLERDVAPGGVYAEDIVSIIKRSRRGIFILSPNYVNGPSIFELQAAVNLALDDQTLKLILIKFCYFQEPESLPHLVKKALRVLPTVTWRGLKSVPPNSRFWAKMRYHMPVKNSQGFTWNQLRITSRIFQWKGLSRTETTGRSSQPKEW

[4] = biological target: T4, interleukin 18 binding protein (IL-18BP) (UniProt O95998 31-194)
T4 sequence (looked up): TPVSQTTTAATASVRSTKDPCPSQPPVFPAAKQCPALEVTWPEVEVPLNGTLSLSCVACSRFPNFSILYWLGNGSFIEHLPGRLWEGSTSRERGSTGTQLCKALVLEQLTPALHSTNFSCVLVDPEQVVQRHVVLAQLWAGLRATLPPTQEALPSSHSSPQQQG

B1: IL-18 variant G3L, E6Q, T63H, N91M, R104H (ligand)
chain: YFLKLQSKLSVIRNLNDQVLFIDQGNRPLFEDMTDSDMRDNAPRTIFIISMYKDSQPRGMAVHISVKSEKISTLSSENKIISFKEMNPPDMIKDTKSDIIFFQHSVPGHDNKMQFESSSYEGYFLASEKERDLFKLILKKEDELGDRSIMFTVQNED
Activity, No BP, DF-100000 [1]: 0.16
Activity, No BP, DF-500000 [1]: 0.09
Activity, No BP, DF-2500000 [1]: 0.11
Activity, +100 nM BP, DF-1000002 [2]: 0.08
Activity, +100 nM BP, DF-5000003 [2]: 0.07
Activity, +100 nM BP, DF-25000004 [2]: 0.07
Ratio (-BP/+BP), DF-1000005 [2]: 2.02
Ratio (-BP/+BP), DF-5000006 [2]: 1.16
Ratio (-BP/+BP), DF-25000007 [2]: 1.47

B2: IL-18 variant K53G, S55P, R104K, H109Y (ligand)
chain: YFGKLESKLSVIRNLNDQVLFIDQGNRPLFEDMTDSDMRDNAPRTIFIISMYGDPQPRGMAVTISVKSEKISTLSSENKIISFKEMNPPDNIKDTKSDIIFFQKSVPGYDNKMQFESSSYEGYFLASEKERDLFKLILKKEDELGDRSIMFTVQNED
HEK-Blue activity, No BP, DF-10000 [3]: 0.21
HEK-Blue activity, No BP, DF-100,000 [3]: 0.12
HEK-Blue activity, No BP, DF-1,000,000 [3]: 0.1
HEK-Blue activity, +100 nM BP, DF-10000 [4]: 0.12
HEK-Blue activity, +100 nM BP, DF-100,000 [4]: 0.09
HEK-Blue activity, +100 nM BP, DF-1,000,000 [4]: 0.09
Ratio (-BP/+BP), DF-10000 [4]: 1.72
Ratio (-BP/+BP), DF-100,000 [4]: 1.3
Ratio (-BP/+BP), DF-1,000,000 [4]: 1.2

B3: IL-18 variant D23G, K53Y, S55Y (ligand)
chain: YFGKLESKLSVIRNLNDQVLFIGQGNRPLFEDMTDSDMRDNAPRTIFIISMYYDYQPRGMAVTISVKSEKISTLSSENKIISFKEMNPPDNIKDTKSDIIFFQRSVPGHDNKMQFESSSYEGYFLASEKERDLFKLILKKEDELGDRSIMFTVQNED
HEK-Blue activity, No BP, DF-10000 [3]: 0.25
HEK-Blue activity, No BP, DF-100,000 [3]: 0.1
HEK-Blue activity, No BP, DF-1,000,000 [3]: 0.11
HEK-Blue activity, +100 nM BP, DF-10000 [4]: 0.11
HEK-Blue activity, +100 nM BP, DF-100,000 [4]: 0.1
HEK-Blue activity, +100 nM BP, DF-1,000,000 [4]: 0.1
Ratio (-BP/+BP), DF-10000 [4]: 2.29
Ratio (-BP/+BP), DF-100,000 [4]: 1.09
Ratio (-BP/+BP), DF-1,000,000 [4]: 1.13

B4: IL-18 variant G3Q, E6H, S7Y, D23A, R27S, D54S, S55R, T63F, N91F, R104Q (ligand)
chain: YFQKLHYKLSVIRNLNDQVLFIAQGNSPLFEDMTDSDMRDNAPRTIFIISMYKSRQPRGMAVFISVKSEKISTLSSENKIISFKEMNPPDFIKDTKSDIIFFQQSVPGHDNKMQFESSSYEGYFLASEKERDLFKLILKKEDELGDRSIMFTVQNED
Activity, No BP, DF-100000 [1]: 0.08
Activity, No BP, DF-500000 [1]: 0.08
Activity, No BP, DF-2500000 [1]: 0.07
Activity, +100 nM BP, DF-1000002 [2]: 0.07
Activity, +100 nM BP, DF-5000003 [2]: 0.08
Activity, +100 nM BP, DF-25000004 [2]: 0.07
Ratio (-BP/+BP), DF-1000005 [2]: 1.12
Ratio (-BP/+BP), DF-5000006 [2]: 1.01
Ratio (-BP/+BP), DF-25000007 [2]: 1.04

B5: IL-18 variant G3P, E6I, K53N, D54W, S55P, T63S, N91L, R104Q (ligand)
chain: YFPKLISKLSVIRNLNDQVLFIDQGNRPLFEDMTDSDMRDNAPRTIFIISMYNWPQPRGMAVSISVKSEKISTLSSENKIISFKEMNPPDLIKDTKSDIIFFQQSVPGHDNKMQFESSSYEGYFLASEKERDLFKLILKKEDELGDRSIMFTVQNED
Activity, No BP, DF-100000 [1]: 0.07
Activity, No BP, DF-500000 [1]: 0.08
Activity, No BP, DF-2500000 [1]: 0.07
Activity, +100 nM BP, DF-1000002 [2]: 0.08
Activity, +100 nM BP, DF-5000003 [2]: 0.09
Activity, +100 nM BP, DF-25000004 [2]: 0.07
Ratio (-BP/+BP), DF-1000005 [2]: 0.91
Ratio (-BP/+BP), DF-5000006 [2]: 0.91
Ratio (-BP/+BP), DF-25000007 [2]: 0.97

B6: IL-18 variant K53Y, S55G, Q56H (ligand)
chain: YFGKLESKLSVIRNLNDQVLFIDQGNRPLFEDMTDSDMRDNAPRTIFIISMYYDGHPRGMAVTISVKSEKISTLSSENKIISFKEMNPPDNIKDTKSDIIFFQRSVPGHDNKMQFESSSYEGYFLASEKERDLFKLILKKEDELGDRSIMFTVQNED
HEK-Blue activity, No BP, DF-10000 [3]: 0.26
HEK-Blue activity, No BP, DF-100,000 [3]: 0.15
HEK-Blue activity, No BP, DF-1,000,000 [3]: 0.11
HEK-Blue activity, +100 nM BP, DF-10000 [4]: 0.3
HEK-Blue activity, +100 nM BP, DF-100,000 [4]: 0.21
HEK-Blue activity, +100 nM BP, DF-1,000,000 [4]: 0.18
Ratio (-BP/+BP), DF-10000 [4]: 0.86
Ratio (-BP/+BP), DF-100,000 [4]: 0.7
Ratio (-BP/+BP), DF-1,000,000 [4]: 0.63
